Test results published in paper PMC6850173 (Molecular Microbiology, 2019).
Numbering of substitutions follows the chain as printed. Names may count otherwise.

Tests used:
[1] = substrate: Cc1cc2nc3c(=O)[nH]c(=O)nc-3n(C[C@H](O)[C@H](O)[C@H](O)COP(=O)(O)OP(=O)(O)OC[C@H]3O[C@@H](n4cnc5c(N)ncnc54)[C@H](O)[C@@H]3O)c2cc1C; assay: HPLC of MTA-CoA formation, initial rates, nonlinear fit; format: biochemical, Roseovarius nubinhibens; conditions: MMPA-CoA as substrate, pH 9.0, 40°C, varied: cofactor
[2] = substrate: CSCCC(=O)SCCNC(=O)CCNC(=O)[C@H](O)C(C)(C)COP(=O)(O)OP(=O)(O)OC[C@H]1O[C@@H](n2cnc3c(N)ncnc32)[C@H](O)[C@@H]1OP(=O)(O)O; assay: as above; format: biochemical, Roseovarius nubinhibens; conditions: FAD, pH 9.0, 40°C
crystal structure = target: the molecule itself; assay: crystal structure

B1: DmdC (ISM) (Roseovarius nubinhibens ISM; T170A) (protein)
chain: MTRYTAPTQDIQYLLHDVLDVANDPTPGYAELEPDFTSAVLEEAGKIAGEVLHPLNAVGDQEGCVLENGVVRPPKGFKEAFDQVREGGWTALDLPEQYGGQNMPYLLGTAVGEMFSGANQAFTMYQGLTHGAASAILVHGTDQQKDTYLPKMFSCDWTGTMNLTEPHCGADLGLMRSKAVPQDDGSYAISGQKIFISAGEHDMAENIIHLVLAKIPGGPEGIKGVSLFIVPKFLVKEDGSLGERNGVKCSKIEEKMGIHGNSTCVMDYDGAKGWLLGEEHKGMRAMFTMMNEARIGVGMQGLAQAEVAYQNALDYARDRLQGRSVTGVENPDGPADPLIVHPDIRRNLLDQKSFIEGARAFLLWGAQMIDRAERGKDEAAHGMVSLLTPVIKGFLTDEGYDMTVQAQQVYGGHGYIEETGMSQFTRDARIAMIYEGANGVQALDLVGRKLAQDGGKHVMAFFDLVKGFIKEAGTDGAMAEFTEPLKSASKDLQSAGMFFMQNGMKNPNAALAGSYDFMHLFGHVCLGLMWGRMAEASLKALAEGRGDANFHETKLATARFYMTRRLPATKLHLARIESGADPVMALDADRF
[1]
  Km: 0.1125 ± 0.0045 mM

B2: DmdC (ISM) (Roseovarius nubinhibens ISM; R284A) (protein)
chain: B1 chain with A170T, R284A
[2]
  Km: 12.4 ± 1.0 mM

B3: DmdB Lys523Ala mutant (Ruegeria lacuscaerulensis ITI_1157) (enzyme, UniProt P0DX84 1-539, looked up)
chain: MLGQMMTQPLLISSLIDHAARYHGQTEIVSVETDGTVTRTNWGEIAANARRMGSALTKLGLQPQDRIGTLAWNNRRHLEIYYAASGAGFVCHTINPRLFPEQLVYIINHAQDRVLFFDATFLPLVAAIRDQLTEVKHFVLMGPRNEDALQQIPGLEFYDELIETGDTDFEWPVFDENTASSLCYTSGTTGHPKGVLYSHRSTVLHSFASNTRDVIGYSAMDVVMPVVPMFHVNAWGSPYGCAMSGAQMVLPGPDLHGEALVNLIDTYGVTLAMGVPTIWQGLLAHAAKCGTKLESLERTVIGGAACPPSMIATFREKYGVDTVHAWGMSEMSPLGTANIPLAKHRKLPIEEQHKLRENQGRPPFGVELKIVDDDGNDLPHDGVTQGDLMVRGHWVLDSYFQLKDQELLQDGWFATGDVATLDPDGYMTIRDRSKDIIKSGGEWISSVELENIAVAHPKLATAAVIGVPHPKWDERPLLVAVKAEGEDPSEAELLEFFDGKIAKWQVPDKVVFVDALPLNATGAVLKRKLRDEFKDALTG
Crystal structure
  binding result: binds
